B1: IgG1-F960 (antibody)
heavy: QVQLQESGPGLVKPSETLSLTCAVSGHSISHDHAWSWVRQPPGEGLEWIGFISYSGITNYNPSLQGRVTISRDNSKNTLYLQMNSLRAEDTAVYYCARSLARTTAMDYWGEGTLVTVSSASTKGPSVFPLAPSSKSTSGGTAALGCLVKDYFPEPVTVSWNSGALTSGVHTFPAVLQSSGLYSLSSVVTVPSSSLGTQTYICNVNHKPSNTKVDKKVEPKSCDKTHTCPPCPAPELLGGPSVFLFPPKPKDTLYISRTPEVTCVVVDVSHEDPEVKFNWYVDGVEVHNAKTKPREEQYNSTYRVVSVLTVLHQDWLNGKEYKCKVSNKALPAPIEKTISKAKGQPREPQVYTLPPSRDELTKNQVSLTCLVKGFYPSDIAVEWESNGQPENNYKTTPPVLDSDGSFFLYSKLTVDKSRWQQGNVFSCSVMHEALHYRVTQKSLSLSP
light: not shown
notes: EU numbering; copies: 2 + 2
B2: IgG1-F992 (antibody)
heavy: QVQLQESGPGLVKPSETLSLTCAVSGHSISHDHAWSWVRQPPGEGLEWIGFISYSGITNYNPSLQGRVTISRDNSKNTLYLQMNSLRAEDTAVYYCARSLARTTAMDYWGEGTLVTVSSASTKGPSVFPLAPSSKSTSGGTAALGCLVKDYFPEPVTVSWNSGALTSGVHTFPAVLQSSGLYSLSSVVTVPSSSLGTQTYICNVNHKPSNTKVDKKVEPKSCDKTHTCPPCPAPELRGGPKVFLFPPKPKDTLYISRTPEVTCVVVDVSHEDPEVKFNWYVDGVEVHNAKTKPREEQYNSTYRVVSVLQVLHADWLNGKEYKCKVSNKALPAPIEKTISKAKGQPREPQVYTLPPSRDELTKNQVSLTCLVKGFYPSDIAVEWESNGQPENNYKTTPPVLDSDGSFFLYSKLTVDKSRWQQGNVFSCSVIHEALHYHVTQKSLSLSP
light: not shown
notes: EU numbering; copies: 2 + 2
B3: IgG1-F987 (antibody)
heavy: QVQLQESGPGLVKPSETLSLTCAVSGHSISHDHAWSWVRQPPGEGLEWIGFISYSGITNYNPSLQGRVTISRDNSKNTLYLQMNSLRAEDTAVYYCARSLARTTAMDYWGEGTLVTVSSASTKGPSVFPLAPSSKSTSGGTAALGCLVKDYFPEPVTVSWNSGALTSGVHTFPAVLQSSGLYSLSSVVTVPSSSLGTQTYICNVNHKPSNTKVDKKVEPKSCDKTHTCPPCPAPELLGGDSVFLFPPKPKDVLYISRTPEVTCVVVDVSHEDPEVKFNWYVDGVEVHNAKTKPREEQYNSTYRVVSVLQVLHADWLNGKEYKCKVSNKALPAPIEKTISKAKGQPREPQVYTLPPSRDELTKNQVSLTCLVKGFYPSDIAVEWESNGQPENNYKTTPPVLDSDGSFFLYSKLTVDKSRWQQGNVFSCSVMHEALHYHVTQKSLSLSP
light: not shown
notes: EU numbering; copies: 2 + 2
B4: IgG1-F966 (antibody)
heavy: QVQLQESGPGLVKPSETLSLTCAVSGHSISHDHAWSWVRQPPGEGLEWIGFISYSGITNYNPSLQGRVTISRDNSKNTLYLQMNSLRAEDTAVYYCARSLARTTAMDYWGEGTLVTVSSASTKGPSVFPLAPSSKSTSGGTAALGCLVKDYFPEPVTVSWNSGALTSGVHTFPAVLQSSGLYSLSSVVTVPSSSLGTQTYICNVNHKPSNTKVDKKVEPKSCDKTHTCPPCPAPELLGGPSVFLFPPKPKDTLYIARTPEVTCVVVDVSHEDPEVKFNWYVDGVEVHNAKTKPREEQYNSTYRVVSVLTVLHQDWLNGKEYKCKVSNKALPAPIEKTISKAKGQPREPQVYTLPPSRDELTKNQVSLTCLVKGFYPSDIAVEWESNGQPENNYKTTPPVLDSDGSFFLYSKLTVDKSRWQQGNVFSCSVMHEALHYHYTQKSLSLSP
light: not shown
notes: EU numbering; copies: 2 + 2
B5: IgG1-F978 (antibody)
heavy: QVQLQESGPGLVKPSETLSLTCAVSGHSISHDHAWSWVRQPPGEGLEWIGFISYSGITNYNPSLQGRVTISRDNSKNTLYLQMNSLRAEDTAVYYCARSLARTTAMDYWGEGTLVTVSSASTKGPSVFPLAPSSKSTSGGTAALGCLVKDYFPEPVTVSWNSGALTSGVHTFPAVLQSSGLYSLSSVVTVPSSSLGTQTYICNVNHKPSNTKVDKKVEPKSCDKTHTCPPCPAPELLGGPSVFLFPPKPKDTLYIQRTPEVTCVVVDVSHEDPEVKFNWYVDGVEVHNAKTKPREEQYNSTYRVVSVLTVLHQDWLNGKEYKCKVSNKALPAPIEKTISKAKGQPREPQVYTLPPSRDELTKNQVSLTCLVKGFYPSDIAVEWESNGQPENNYKTTPPVLDSDGSFFLYSKLTVDKSRWQQGNVFSCSVMHEALHYHYTQKSLSLSP
light: not shown
notes: EU numbering; copies: 2 + 2
B6: IgG1-F988 (antibody)
heavy: QVQLQESGPGLVKPSETLSLTCAVSGHSISHDHAWSWVRQPPGEGLEWIGFISYSGITNYNPSLQGRVTISRDNSKNTLYLQMNSLRAEDTAVYYCARSLARTTAMDYWGEGTLVTVSSASTKGPSVFPLAPSSKSTSGGTAALGCLVKDYFPEPVTVSWNSGALTSGVHTFPAVLQSSGLYSLSSVVTVPSSSLGTQTYICNVNHKPSNTKVDKKVEPKSCDKTHTCPPCPAPELLGGDSVFLFPPKPKDVLYISRTPEVTCVVVDVSHEDPEVKFNWYVDGVEVHEAKTKPREEQYNSTYRVVSVLTVLHQDWLNGKEYKCKVSNKALPAPIEKTISKAKGQPREPQVYTLPPSRDELTKNQVSLTCLVKGFYPSDIAVEWESNGQPENNYKTTPPVLDSDGSFFLYSKLTVDKSRWQQGNVFSCSVMHEALHYHVTQKSLSLSP
light: not shown
notes: EU numbering; copies: 2 + 2
B7: IgG1-F971 (antibody)
heavy: QVQLQESGPGLVKPSETLSLTCAVSGHSISHDHAWSWVRQPPGEGLEWIGFISYSGITNYNPSLQGRVTISRDNSKNTLYLQMNSLRAEDTAVYYCARSLARTTAMDYWGEGTLVTVSSASTKGPSVFPLAPSSKSTSGGTAALGCLVKDYFPEPVTVSWNSGALTSGVHTFPAVLQSSGLYSLSSVVTVPSSSLGTQTYICNVNHKPSNTKVDKKVEPKSCDKTHTCPPCPAPELLGGPSVFLFPPKPKDTLYIHRTPEVTCVVVDVSHEDPEVKFNWYVDGVEVHNAKTKPREEQYNSTYRVVSVLTVLHQDWLNGKEYKCKVSNKALPAPIEKTISKAKGQPREPQVYTLPPSRDELTKNQVSLTCLVKGFYPSDIAVEWESNGQPENNYKTTPPVLDSDGSFFLYSKLTVDKSRWQQGNVFSCSVMHEALHYHYTQKSLSLSP
light: not shown
notes: EU numbering; copies: 2 + 2
B8: IgG1-F972 (antibody)
heavy: QVQLQESGPGLVKPSETLSLTCAVSGHSISHDHAWSWVRQPPGEGLEWIGFISYSGITNYNPSLQGRVTISRDNSKNTLYLQMNSLRAEDTAVYYCARSLARTTAMDYWGEGTLVTVSSASTKGPSVFPLAPSSKSTSGGTAALGCLVKDYFPEPVTVSWNSGALTSGVHTFPAVLQSSGLYSLSSVVTVPSSSLGTQTYICNVNHKPSNTKVDKKVEPKSCDKTHTCPPCPAPELLGGPSVFLFPPKPKDTLYIIRTPEVTCVVVDVSHEDPEVKFNWYVDGVEVHNAKTKPREEQYNSTYRVVSVLTVLHQDWLNGKEYKCKVSNKALPAPIEKTISKAKGQPREPQVYTLPPSRDELTKNQVSLTCLVKGFYPSDIAVEWESNGQPENNYKTTPPVLDSDGSFFLYSKLTVDKSRWQQGNVFSCSVMHEALHYHYTQKSLSLSP
light: not shown
notes: EU numbering; copies: 2 + 2
B9: IgG1-F989 (antibody)
heavy: QVQLQESGPGLVKPSETLSLTCAVSGHSISHDHAWSWVRQPPGEGLEWIGFISYSGITNYNPSLQGRVTISRDNSKNTLYLQMNSLRAEDTAVYYCARSLARTTAMDYWGEGTLVTVSSASTKGPSVFPLAPSSKSTSGGTAALGCLVKDYFPEPVTVSWNSGALTSGVHTFPAVLQSSGLYSLSSVVTVPSSSLGTQTYICNVNHKPSNTKVDKKVEPKSCDKTHTCPPCPAPELRGGPKVFLFPPKPKDTLYISRTPEVTCVVVDVSHEDPEVKFNWYVDGVEVHNAKTKPREEQYNSTYRVVSVLTPLHQDWLNGKEYKCKVSNKALPAPIEKTISKAKGQPREPQVYTLPPSRDELTKNQVSLTCLVKGFYPSDIAVEWESNGQPENNYKTTPPVLDSDGSFFLYSKLTVDKSRWQQGNVFSCSVMHEALHYHVTQKSLSLSP
light: not shown
notes: EU numbering; copies: 2 + 2
B10: IgG1-F991 (antibody)
heavy: QVQLQESGPGLVKPSETLSLTCAVSGHSISHDHAWSWVRQPPGEGLEWIGFISYSGITNYNPSLQGRVTISRDNSKNTLYLQMNSLRAEDTAVYYCARSLARTTAMDYWGEGTLVTVSSASTKGPSVFPLAPSSKSTSGGTAALGCLVKDYFPEPVTVSWNSGALTSGVHTFPAVLQSSGLYSLSSVVTVPSSSLGTQTYICNVNHKPSNTKVDKKVEPKSCDKTHTCPPCPAPELRGGPKVFLFPPKPKDTLYISRTPEVTCVVVDVSHEDPEVKFNWYVDGVEVHEAKTKPREEQYNSTYRVVSVLQVLHADWLNGKEYKCKVSNKALPAPIEKTISKAKGQPREPQVYTLPPSRDELTKNQVSLTCLVKGFYPSDIAVEWESNGQPENNYKTTPPVLDSDGSFFLYSKLTVDKSRWQQGNVFSCSVMHEALHYHVTQKSLSLSP
light: not shown
notes: EU numbering; copies: 2 + 2
B11: IgG1-F980 (antibody)
heavy: QVQLQESGPGLVKPSETLSLTCAVSGHSISHDHAWSWVRQPPGEGLEWIGFISYSGITNYNPSLQGRVTISRDNSKNTLYLQMNSLRAEDTAVYYCARSLARTTAMDYWGEGTLVTVSSASTKGPSVFPLAPSSKSTSGGTAALGCLVKDYFPEPVTVSWNSGALTSGVHTFPAVLQSSGLYSLSSVVTVPSSSLGTQTYICNVNHKPSNTKVDKKVEPKSCDKTHTCPPCPAPELLGGPSVFLFPPKPKDTLYIVRTPEVTCVVVDVSHEDPEVKFNWYVDGVEVHNAKTKPREEQYNSTYRVVSVLTVLHQDWLNGKEYKCKVSNKALPAPIEKTISKAKGQPREPQVYTLPPSRDELTKNQVSLTCLVKGFYPSDIAVEWESNGQPENNYKTTPPVLDSDGSFFLYSKLTVDKSRWQQGNVFSCSVMHEALHYHYTQKSLSLSP
light: not shown
notes: EU numbering; copies: 2 + 2
B12: IgG1-F990 (antibody)
heavy: QVQLQESGPGLVKPSETLSLTCAVSGHSISHDHAWSWVRQPPGEGLEWIGFISYSGITNYNPSLQGRVTISRDNSKNTLYLQMNSLRAEDTAVYYCARSLARTTAMDYWGEGTLVTVSSASTKGPSVFPLAPSSKSTSGGTAALGCLVKDYFPEPVTVSWNSGALTSGVHTFPAVLQSSGLYSLSSVVTVPSSSLGTQTYICNVNHKPSNTKVDKKVEPKSCDKTHTCPPCPAPELRGGPKVFLFPPKPKDTLYISRTPEVTCVVVDVSHEDPEVKFNWYVDGVEVHNAKTKPREEQYNSTYRVVSVLQPLHADWLNGKEYKCKVSNKALPAPIEKTISKAKGQPREPQVYTLPPSRDELTKNQVSLTCLVKGFYPSDIAVEWESNGQPENNYKTTPPVLDSDGSFFLYSKLTVDKSRWQQGNVFSCSVMHEALHYHVTQKSLSLSP
light: not shown
notes: EU numbering; copies: 2 + 2
B13: IgG1-F970 (antibody)
heavy: QVQLQESGPGLVKPSETLSLTCAVSGHSISHDHAWSWVRQPPGEGLEWIGFISYSGITNYNPSLQGRVTISRDNSKNTLYLQMNSLRAEDTAVYYCARSLARTTAMDYWGEGTLVTVSSASTKGPSVFPLAPSSKSTSGGTAALGCLVKDYFPEPVTVSWNSGALTSGVHTFPAVLQSSGLYSLSSVVTVPSSSLGTQTYICNVNHKPSNTKVDKKVEPKSCDKTHTCPPCPAPELLGGPSVFLFPPKPKDTLYIGRTPEVTCVVVDVSHEDPEVKFNWYVDGVEVHNAKTKPREEQYNSTYRVVSVLTVLHQDWLNGKEYKCKVSNKALPAPIEKTISKAKGQPREPQVYTLPPSRDELTKNQVSLTCLVKGFYPSDIAVEWESNGQPENNYKTTPPVLDSDGSFFLYSKLTVDKSRWQQGNVFSCSVMHEALHYHYTQKSLSLSP
light: not shown
notes: EU numbering; copies: 2 + 2

Molecular target: T1, soluble human FcRn complexed with β2-microglobulin (human, UniProt P61769 21-119, limits assumed)
T1 construct: also called hFcRn
Assay: Biacore SPR, pH 7.0;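 note: test antibodies captured on a Protein L chip with human FcRn flowed over as analyte, KD obtained as the ratio of dissociation to association rate constants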

T1 sequence (chain, as listed by the source limits assumed, chain 1 of 2): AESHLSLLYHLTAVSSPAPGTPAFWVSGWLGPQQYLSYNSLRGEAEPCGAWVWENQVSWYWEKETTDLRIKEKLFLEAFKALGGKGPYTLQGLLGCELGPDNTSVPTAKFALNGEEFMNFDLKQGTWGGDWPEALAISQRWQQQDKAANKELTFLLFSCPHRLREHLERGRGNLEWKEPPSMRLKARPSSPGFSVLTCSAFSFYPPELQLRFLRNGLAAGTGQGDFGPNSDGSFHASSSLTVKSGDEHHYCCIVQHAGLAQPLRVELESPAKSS
T1 sequence (P61769 21-119 limits assumed, chain 2 of 2): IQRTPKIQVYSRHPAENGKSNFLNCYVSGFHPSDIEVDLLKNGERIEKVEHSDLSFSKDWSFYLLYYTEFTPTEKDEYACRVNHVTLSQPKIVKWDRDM

Which Kd does the source give for B1 here?
The Kd was 800 nM.

How did the Kd turn out when B2 was run?
Its Kd is 51 nM.

With B3 as the binder, how does the Kd read?
Its Kd is 40 nM.

B4 was tested. Which Kd did it give?
The Kd was 310 nM.

With B5 as the binder, how does the Kd read?
Its Kd is 1300 nM.

B6 was tested. Which Kd did it give?
Its Kd is 69 nM.

How did the Kd turn out when B7 was run?
Its Kd is 2600 nM.

How did the Kd turn out when B8 was run?
Its Kd is 260 nM.

How did the Kd turn out when B9 was run?
Its Kd is 14 nM.

How did the Kd turn out when B10 was run?
The Kd was 13 nM.

For B11, which Kd is on record?
Its Kd is 180 nM.

Which Kd does the source give for B12 here?
The Kd was 9.4 nM.

Which Kd does the source give for B13 here?
The Kd was 2500 nM.
